{"source": "the nanobody polyreactivity screen of Harvey et al. (2022)", "data": [{"test": "yeast display, Sf9 membrane polyspecificity reagent, FACS + sequencing; frameworks hold sequencing errors", "how_it_was_run": "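In a synthetic yeast display library (Saccharomyces cerevisiae BJ5465), nanobody expression was induced with galactose for 36–48 hours. FACS gates were set low and high (top ~1%) using anti-HA fluorescence for expression and streptavidin fluorescence for binding of the Sf9 membrane reagent. Each polyreactivity label is drawn from the gate of origin.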", "values": [{"sequence": "QVQLVESGGGLVQAGGSLRLSCAASGFILYYYVMGWYRQAPGKERELVAAISTSGTSTYYADSVKGRFTISRDNAKNTVYLQMNSLKPEDTAVYYCAAEKDSSDIMEYWGQGTQVTVSS", "polyreactivity (PSR sort gate)": "high polyreactivity"}, {"sequence": "QVQLVESGGGLVQAGGSLRLSCAASGSTFYNAMGWYIQAPGKERELVAGISRNGGSTRYADSVKGRFTISRDNAKNTVYLQSHSQKPEDTAVSYCAAGYYDYGWDYANDYWGQGTQVTVSS", "polyreactivity (PSR sort gate)": "low polyreactivity"}, {"sequence": "QVQLVESGGGLVQAGGSLRLICAASGLTFYRYAMGWYRQGPGKERELVAGITRRGGSTYYADSVKGRFTISRDKPKNTVYLPMNSLKPEDTAVYYCNVDGISSSYPEMDYWGQGTQVTVSS", "polyreactivity (PSR sort gate)": "low polyreactivity"}, {"sequence": "QVQLVESGGGLVQAGGSLRLSSAASGSIFNYNAMGWYRQAPGKERELVAAISSSGSTNYADSVKGRFTISRDNAKNTVYLQMNSLKPEDTAVYYCAADYGSYGVVRAVSIEYEYWGQGTQVTVSS", "polyreactivity (PSR sort gate)": "low polyreactivity"}, {"sequence": "QVQLVESGGGLVQAGGSLRLSCAASGSTLYTYDMGWYRQAPGKERELVASISGSDGSTYYADSVKGRFTISRDNAKNTVYLQMNSLKPEDTAVYYCAVDSYQTGVYFYYVYWDFDLGYWGQGTQVTVSS", "polyreactivity (PSR sort gate)": "low polyreactivity"}, {"sequence": "QVQLVESGGGLVQAGGSLRLSCAASGSIFYYYTMGWYRQSPGKERELVAAIRWSSGTTYYADSVKGRFTISRDKAKNTVYLQINSLKPEDTAVYYCAAGGHARTWYAYYYWGQGTQVTVSS", "polyreactivity (PSR sort gate)": "low polyreactivity"}, {"sequence": "QVQLVESGGGLVQAGGSLRLSCAASGSIFSNYAMGWYRQAPGKERELVAAITLSSGGTYYADSVKGRFTISRDNAKNTVYLQMNSLKPEDTAVYYCAAQYKYFKHRYYYWGQGTQVTVSS", "polyreactivity (PSR sort gate)": "high polyreactivity"}, {"sequence": "QVQLVESGGGLVQSGGSLRLSCDASGITFKYAMGCYSQAPWKESELVAAISWSGGRTYYADSVKGRFTISRDNAKNTVYLQMNSLKPEDTAVYYCNAYRRYNDEDYWGQGTQVTVSS", "polyreactivity (PSR sort gate)": "high polyreactivity"}, {"sequence": "QVQLVESGGGLVQAGGSLRLSCAASGFIFHKYAMGWYRQAPGKERELVARITGSGASTFYADSVKGRFTISRDNAKNTVYLQMNSLKPEDTAVYYCAATIGSLLKYNRHRYYYWGQGTQVTVSS", "polyreactivity (PSR sort gate)": "high polyreactivity"}, {"sequence": "QVQLVESGGGLVQAGGSLRLSCAASGRTFLYYAMGWYRQAPGKERELVAVISRDGGSTYYADSVKGRFTISRDNAKNTVYLQMNSLKPEDTAVYYCAKRYGWASGYWNSNYGYLYDYWGQGTQVTVSS", "polyreactivity (PSR sort gate)": "high polyreactivity"}, {"sequence": "QVQLVESGGGLVQAGGSLRLSCAASGSTFITNSMGWYRQAPGKERELVAAITYSTGGTYYADSVKGRFTISRDNAKNTVYLQMNSLKPEDTAVYYCAALLYFFLYDYWGQGTQVSVSS", "polyreactivity (PSR sort gate)": "low polyreactivity"}, {"sequence": "QVQLVESGGGLVQAGGSLRLSCAASGRTFAQNAMGWYRQAPGKERELVAAITASGSITYYADSVKGRFTISRDNAKNTVYLQMNSLKPEDTAVSYCAARGRYHFFSKYDYWGQGTQVTVSS", "polyreactivity (PSR sort gate)": "high polyreactivity"}, {"sequence": "QVQLVESGGGLVQAGGSLRLSCAASGRIFYRYAMGWYRPAPGKERELVAAIRYSGGRTYYADSVKGRFTISRDNAKNTVYLQMISLKPEDTAVYYCAADGQWYYAPFRGGDYENDYWGQGTQVTVSS", "polyreactivity (PSR sort gate)": "low polyreactivity"}, {"sequence": "QVKLVESGGGLVQAGGSLRLSCAASGFTFYYYTMGGSRQAPGKERELVAAITSRGGNTYYADSVKGRFTISRDYEKNTVYLQMNSLKPEDTAVYYCAACLFSSRCYGYWGQGTQVTVSS", "polyreactivity (PSR sort gate)": "high polyreactivity"}, {"sequence": "QVQLVESGGGLVQAGGSLRLSCAASGFTFRQNAMGWYIQAPGKERELVAAISRGGGGTHYADSVKGRFTISRDNAKNNVYLHMNSLKPEDTAVYYCAKRRYPTFVVPVYYWGQGTQVTVSS", "polyreactivity (PSR sort gate)": "high polyreactivity"}, {"sequence": "QVQLVESGGGLVQAGGSLRLSSAASGRIFSRYAMGWYRQAPGKERELVAAITQSGTSTYYADSVKGRFTISRDNAKNTVYLQMNSLKPEDTAVYYCNAYRQYRYDYWGQGSQVTVSS", "polyreactivity (PSR sort gate)": "low polyreactivity"}, {"sequence": "QVQLVESGGGLVQAGGSLRLSCAASGRIFARYAMGWYRQAPGKERELVAAISRGGSTKYADSVKGRFTISRDNAKNTVYLQMNSLKPEDTAVYYCAGQLWGSPYGAYYAGDYWGQGTQVTVSS", "polyreactivity (PSR sort gate)": "low polyreactivity"}, {"sequence": "QVQLVESGGGLFKAGGSLRLSCAASGSTLVTYAKGWYRQAPGKERELVAAISWRGGSTYYADSVKGRYTISRDNAKNTVYLQMNSLKPEDTEVYYCNKMRAYKESETYYFWGQGTQVTVSS", "polyreactivity (PSR sort gate)": "low polyreactivity"}, {"sequence": "QVQLVESGGGLVQAGGSLRLSCAASGYTLSFNAMGWYRQAPGKARELVAGITYSGGSTYYSDSVKGRFTISRDNAKNTVYLQMTSLKPEDTAVYYCNKASGVYYGHLDYWGQGTQVTVSS", "polyreactivity (PSR sort gate)": "low polyreactivity"}, {"sequence": "QVLLQESGGRLVQAGGSLRLGCEPSGTISPAYYMGRYHQAPGKEREFVAAITYGTNTYYADSVKGRCTISRDIAKNTVYLQMNSLKPEDSAVYYCSATAGYNGAHDYCGQGTQVTVSS", "polyreactivity (PSR sort gate)": "low polyreactivity"}, {"sequence": "QVQLVESGGGLVQAGGSLRLSCAASGGTFSYYAMGWYRQAPGKERELVAAISKRGGSTYYADSVKGRFTISRDNAKNTVYLQMNSLKPEDTAVYYCARGYSWSVGYPRVQDMDYWGQGTQVTVSS", "polyreactivity (PSR sort gate)": "high polyreactivity"}, {"sequence": "QVQLVESGGGLVQAGGSLRLSCAASGSIFDGYAMGWYRQAPGTERELVAGISGRGTRTYYADSVKGRFTISRDYAMNTVYLQMNSLKPEDTAVYYCNKAGYFHRLKYYYWGQGTQVTVSS", "polyreactivity (PSR sort gate)": "high polyreactivity"}, {"sequence": "QVQLVESGGGLVQAGGSLRLSCAASGSIFISYDIGWYRHAPGKETELVAAIRSRVGSTYYADSVKGRFTISRDNAKNTVYLQMKSLKPEDTAVYYCNKDNAVDRLPWFQVTYEYWGQGTQVTVSS", "polyreactivity (PSR sort gate)": "low polyreactivity"}, {"sequence": "QVHLVDSGGGLVQAGGSLRLSCAASGSIIVFYAMGWYRQAPGKERELVAAITDSGSTNYADSVKGRFTISRDNAKNTVYLQMNSLKPEDTAVYYCDWSYYVLRRYRVARYDSGGQGTQVTVSS", "polyreactivity (PSR sort gate)": "low polyreactivity"}, {"sequence": "QVQLVESVGGLVQAGGSLRLSCAASGLIFSRYAMGWYRQAPGKERELVAAITSGTSTYYADSVKGRFTISRDNAKNTVYLQMNSLKPEDTAVYYCARRYRGGYKYDYWGQGTQVTVSS", "polyreactivity (PSR sort gate)": "high polyreactivity"}, {"sequence": "QVQHLESGGGLVQAGGSLRLSCVASGLTQPYAMRWYRQAPGKERQLVAAITGGDGSTTYADSVKGRFTISRVNAKNTVYLQMNSLKPEDTAVYYCNADTARKYAESQFYHWGQGTQVSVSS", "polyreactivity (PSR sort gate)": "low polyreactivity"}, {"sequence": "QVQLVESGGGLVQAGGSLRLSCAASGFTFGVNAMGWYRQAPGKERELVAAISSSGGRTYYADSVKGRFTISRDNAKNTVYLQMNSLKQEDTAVYYCAARYVYTRGGPLKRDYWGQGTQVTVSS", "polyreactivity (PSR sort gate)": "high polyreactivity"}, {"sequence": "QVQLVESGGGLVQAGGSLRLSCAASGYTFYQNAMGWYRQAPGKERELVAAITFRTGSTYYADSVKGRFTISRDNAKNTVYLQMNSLKPEDTAVYYCAATRFLRYWWYGYWGQGTQVTVSS", "polyreactivity (PSR sort gate)": "low polyreactivity"}, {"sequence": "QVQLVESGGGLVQAGGSLRLSCAASGSIFGPYAMGWYRQAPGKERELVAAITWSGDSTYYADSVKGRFTISRDNAKNTVYLQMNSLKPEDTAVYYCAAETFIWGQGTQVTVSS", "polyreactivity (PSR sort gate)": "low polyreactivity"}, {"sequence": "QVQLVESGGGLVQAGGSLRLSSAASGSTFTRNGMGWYRQAPGKERELVAVISGSSSSTYYADSVKGRFTISRDNAKNTVYLQMNSLKPEDTAVYYCAARRYYGYAQYYYWGQGTQVTVSS", "polyreactivity (PSR sort gate)": "high polyreactivity"}, {"sequence": "QVQLVESGGGLVQAGGSLRLSCSASGNIFFGYAMGLYRQAPGKERQFVASITKIGGSTYYADSVKGRFTISRDNAKNTVYLQLNSLKPEDTAVYYCAARLGHSVNPGGERWDVVYWGQGTQVTVSS", "polyreactivity (PSR sort gate)": "low polyreactivity"}, {"sequence": "QVQLVDSGGGLVQAGGSLRLSCAASGRTFGYYAMGWYRQAPGKERELVAAISWRGTSTYYADSVKGRFTISRDNAKNTVYLQMNSLKPEDTAVYYCAVGRTVAHRFIAGDYWGQGTQVTVSS", "polyreactivity (PSR sort gate)": "high polyreactivity"}, {"sequence": "QVQLLESGGGLVQAGRSLCLSCAASGSIIINAMGWYRQAPGKERELVATIRWRGGTTYYADSVKGRFTISRDNAKNTVYLQRNSLKPEDTAVYYCAADRSYYPDPRTTYGYNYWGQGTQVTVSS", "polyreactivity (PSR sort gate)": "low polyreactivity"}, {"sequence": "QVQLVESVGDLVQEGGSLRLSCAASGRIFYWYAMGWYRQAPGKETELVAAITSGGSTYYADSVKGRFTISRDNAKNTVYLQMNSLKPEDTAVYYCAKPFSSNSCSHGYWGQGTQVTVSS", "polyreactivity (PSR sort gate)": "low polyreactivity"}, {"sequence": "QVQLVESGGGLVQAGGSLRLSCAASGSIFVYYTMGWYRQAPGKESELVAAISISGTSTYYADSVKGRFTISRDNAKYTVYLQLNSLKPEDTAVYYCAADTFYGEDYWGQGTQVTVSS", "polyreactivity (PSR sort gate)": "low polyreactivity"}, {"sequence": "QVQLVESGGGLVQAGGSLRLSCAASGSIFEINAMGWYRQGPGKERELVAAITGSGGSTHYADSVKGRFTISRDNAKNTDYLQMNSLKPEDTAVYYGAAVPRYQDGYWGQGTQVTVSS", "polyreactivity (PSR sort gate)": "low polyreactivity"}, {"sequence": "QVQLVESGGGLVQAGGSLRLSCAASGSTFFGNAMGWYRQAPGKERELVAVITKGGGSTYYADSVKGRFTISRDNAKNTVYLQMNSLKPEDTAVYYCAKTYTSGYHRRYDYWGQGTQVTVSS", "polyreactivity (PSR sort gate)": "low polyreactivity"}, {"sequence": "QVQLVESGGGLVQAGGSLRLSCAASGSIFNRYAMGWYRQAPGKEREIVAAISTHTGTTYYADSVKGRFTISRDNAKNTVYLQMNSLKPEDTAVYYCDKRSRYGYGKSYDYWGQGTQVTVSS", "polyreactivity (PSR sort gate)": "high polyreactivity"}, {"sequence": "QVQLVESGGGLVQAGGSLRLSCAASGLIFTYYAMGWYRQAPGKERELVAAISSSGVNTYYADSVKGRFTISRDNAKNTVYLQMNSLKPEDTAVYYCAAELQPSPVGGIIQYGFDYWGQGTPVTVSS", "polyreactivity (PSR sort gate)": "low polyreactivity"}, {"sequence": "QVQLVESGGGLVQAGGSLRLSFAASGLIIFSYAMGWYRHAPGKEREIVASIRSSGGSTNYADSVKGRFTISRDNAKNTVYLQMYSLKPEDTAVYYCATRSKTSGRSYIPFNYWGQGTQVTVSS", "polyreactivity (PSR sort gate)": "high polyreactivity"}, {"sequence": "QVQLVESGGGLVQAGGSLRLSCAASGFTFKYNAMGWYRQAPGKERELVASISSGSTNYADSVKGRFTISRDNAKNTVYLQMNSLKPEDTAVYYCSASVSRGKRFRYGYVFKMDYWGQGTQVTVSS", "polyreactivity (PSR sort gate)": "low polyreactivity"}, {"sequence": "QVQHVESGGGLVQAGGSLRLSCAASGFTFYSYAMGWYRQAPGKERELVASITSGGSTYYADSVKGRFTISRDNAKNTVYLQMNSLKPEDTAVYYCAAPAVKPRRSYYYWGQGTQVTVSS", "polyreactivity (PSR sort gate)": "high polyreactivity"}, {"sequence": "QVQLVESGGGLVQAGGSLRLSCAASGSIFIVYAMGWYRQAPGKERELVATISWSGGSTSYADSVKGRFTNSRDNAKNTVYLQMNSLKPEDTAFYYCNTLVRITEYDSWGQGTQVTVSS", "polyreactivity (PSR sort gate)": "low polyreactivity"}]}]}
